Results reported in paper PMC9029707, “Crystal Structure of an SSB Protein from Salmonella enterica and Its Inhibition by Flavanonol Taxifolin” (International Journal of Molecular Sciences, 2022).

Legend:
[1] = target: T1, SeSSB (single-stranded DNA-binding protein, STM_4256) (Salmonella enterica, UniProt P0A2F6); experiment: EMSA, inhibition of binding of purified SeSSB ([…]) to biotinylated ssDNA dT35
T1 construct: gene ssb; His-tagged SeSSB, 176 residues (pET21b-SeSSB)

[2] = target: T2, SeSSB (single-stranded DNA-binding protein) (Salmonella enterica serovar Typhimurium …, UniProt P0A2F6 1-176); experiment: EMSA; 37 C, 40 mM Tris-HCl pH 7.5, 50 mM NaCl; protein at 50% bound; dA EMSA: 20 mM Tris-HCl pH 8.0, 100 mM NaCl, 25 C, 30 min, 1.7 nM DNA; dT35 EMSA: 40 mM Tris-HCl pH 7.5, 50 mM NaCl, 37 C, 60 min, 30 fmol/uL DNA; 8% native PAGE in TBE; conditions: protein: recombinant; tags: His-tag (pET21b); chain copies: 4; label: biotin (5' per Methods 4.5; 3' per Results 2.5); single strand
[3] = target: T2, SeSSB (single-stranded DNA-binding …); experiment: EMSA; single complex; SeSSB 0-4000 nM; dA EMSA: 20 mM Tris-HCl pH 8.0, 100 mM NaCl, 25 C, 30 min, 1.7 nM DNA; dT35 EMSA: 40 mM Tris-HCl pH 7.5, 50 mM NaCl, 37 C, 60 min, 30 fmol/uL DNA; 8% native PAGE in TBE; conditions: protein: recombinant; tags: His-tag (pET21b); chain copies: 4; label: 5'-32P (T4 PNK); single strand
[4] = target: T2, SeSSB (single-stranded DNA-binding …); experiment: EMSA; two complexes; SeSSB 0-4000 nM; dA EMSA: 20 mM Tris-HCl pH 8.0, 100 mM NaCl, 25 C, 30 min, 1.7 nM DNA; dT35 EMSA: 40 mM Tris-HCl pH 7.5, 50 mM NaCl, 37 C, 60 min, 30 fmol/uL DNA; 8% native PAGE in TBE; conditions: protein: recombinant; tags: His-tag (pET21b); chain copies: 4; label: 5'-32P (T4 PNK); single strand
[5] = target: T2, SeSSB (single-stranded DNA-binding …); experiment: EMSA; two complexes at higher SeSSB (0-4000 nM); dA EMSA: 20 mM Tris-HCl pH 8.0, 100 mM NaCl, 25 C, 30 min, 1.7 nM DNA; dT35 EMSA: 40 mM Tris-HCl pH 7.5, 50 mM NaCl, 37 C, 60 min, 30 fmol/uL DNA; 8% native PAGE in TBE; conditions: protein: recombinant; tags: His-tag (pET21b); chain copies: 4; label: 5'-32P (T4 PNK); single strand
[6] = target: the molecule itself; experiment: SEC; purified SeSSB (5 mg/mL) on a Superdex 200 prep-grade column in 100 mM NaCl, 100 mM MES, pH 6.5; calibrated with standard proteins; native mass estimated 76641 Da; tetramer

With `O=C1c2c(O)cc(O)cc2O[C@H](c2ccc(O)c(O)c2)[C@H]1O` [taxifolin] as the molecule, how does the IC50 [1] read?
Its IC50 is 98 ± 12 µM.

For TTTTTTTTTTTTTTTTTTTTTTTTTTTTTTTTTTT (ssDNA) [dT35], which Kd [2] is on record?
The Kd was 0.23 ± 0.02 µM.

Does AAAAAAAAAAAAAAAAAAAAAAAAAAAAAAAAAAA (ssDNA) [dA35] bind [3]?
Result: binds

Does AAAAAAAAAAAAAAAAAAAAAAAAAAAAAAAAAAAAAAAA (ssDNA) [dA40] bind [3]?
Result: binds

B1: dA55 (ssDNA)
DNA: AAAAAAAAAAAAAAAAAAAAAAAAAAAAAAAAAAAAAAAAAAAAAAAAAAAAAAA
Does B1 bind [4]?
Result: binds

Does AAAAAAAAAAAAAAAAAAAAAAAAAAAAAAAAAAAAAAAAAAAAA (ssDNA) [dA45] bind [5]?
Result: binds

Does AAAAAAAAAAAAAAAAAAAAAAAAAAAAAAAAAAAAAAAAAAAAAAAAAA (ssDNA) [dA50] bind [4]?
Result: binds

B2: Single-stranded DNA-binding protein (SSB) from Salmonella enterica serovar Typhimurium LT2 (natural protein, UniProt P0A2F6 1-176, looked up)
chain: MASRGVNKVILVGNLGQDPEVRYMPSGGAVANLTLATSESWRDKQTGEMKEQTEWHRVVMFGKLAEVAGEYLRKGSQVYIEGQLRTRKWTDQSGQERYTTEINVPQIGGVMQMLGGRQGGGAPAGGQQQGGWGQPQQPQQPQGGNQFSGGAQSRPQQSAPAPSNEPPMDFDDDIPF
notes: SSB (STM_4256) of Salmonella enterica serovar Typhimurium LT2; monomer of 176 amino acid residues, ~19 kDa; residues 1-115 ordered and 116-176 disordered in the crystal; No removal of the tag is described; also called SeSSB; S. enterica SSB
For B2, which “stoichiometry N” value [6] is on record?
The value was 4.
